Biological target: the molecule itself

B1: PAS domain of Mycobacterium tuberculosis Rv1364c (residues 1-163) (domain or fragment)
chain: MAAEMDWDKTVGAAEDVRRIFEHIPAILVGLEGPDHRFVAVNAAYRGFSPLLDTVGQPAREVYPELEGQQIYEMLDRVYQTGEPQSGSEWRLQTDYDGSGVEERYFDFVVTPRRRADGSIEGVQLIVDDVTSRVRARQAAEARVEELSERYRNVRDSATVMQQ
modifications: Se-Methionine labeled (the crystallised protein only)
stoichiometry N: 2
